Results published in article PMC13185157.

Target: GFP-LNX1
Experiment: flow cytometry on cells; α-GFP-Nb yeast incubated with lysates of HEK293 cells expressing FLAG-tagged partner plus GFP-LNX1 or GFP; washed once; anti-FLAG antibody; percent of positive cells

Sequence of FLAG-Liprin-α1 (Q13136 whole entry): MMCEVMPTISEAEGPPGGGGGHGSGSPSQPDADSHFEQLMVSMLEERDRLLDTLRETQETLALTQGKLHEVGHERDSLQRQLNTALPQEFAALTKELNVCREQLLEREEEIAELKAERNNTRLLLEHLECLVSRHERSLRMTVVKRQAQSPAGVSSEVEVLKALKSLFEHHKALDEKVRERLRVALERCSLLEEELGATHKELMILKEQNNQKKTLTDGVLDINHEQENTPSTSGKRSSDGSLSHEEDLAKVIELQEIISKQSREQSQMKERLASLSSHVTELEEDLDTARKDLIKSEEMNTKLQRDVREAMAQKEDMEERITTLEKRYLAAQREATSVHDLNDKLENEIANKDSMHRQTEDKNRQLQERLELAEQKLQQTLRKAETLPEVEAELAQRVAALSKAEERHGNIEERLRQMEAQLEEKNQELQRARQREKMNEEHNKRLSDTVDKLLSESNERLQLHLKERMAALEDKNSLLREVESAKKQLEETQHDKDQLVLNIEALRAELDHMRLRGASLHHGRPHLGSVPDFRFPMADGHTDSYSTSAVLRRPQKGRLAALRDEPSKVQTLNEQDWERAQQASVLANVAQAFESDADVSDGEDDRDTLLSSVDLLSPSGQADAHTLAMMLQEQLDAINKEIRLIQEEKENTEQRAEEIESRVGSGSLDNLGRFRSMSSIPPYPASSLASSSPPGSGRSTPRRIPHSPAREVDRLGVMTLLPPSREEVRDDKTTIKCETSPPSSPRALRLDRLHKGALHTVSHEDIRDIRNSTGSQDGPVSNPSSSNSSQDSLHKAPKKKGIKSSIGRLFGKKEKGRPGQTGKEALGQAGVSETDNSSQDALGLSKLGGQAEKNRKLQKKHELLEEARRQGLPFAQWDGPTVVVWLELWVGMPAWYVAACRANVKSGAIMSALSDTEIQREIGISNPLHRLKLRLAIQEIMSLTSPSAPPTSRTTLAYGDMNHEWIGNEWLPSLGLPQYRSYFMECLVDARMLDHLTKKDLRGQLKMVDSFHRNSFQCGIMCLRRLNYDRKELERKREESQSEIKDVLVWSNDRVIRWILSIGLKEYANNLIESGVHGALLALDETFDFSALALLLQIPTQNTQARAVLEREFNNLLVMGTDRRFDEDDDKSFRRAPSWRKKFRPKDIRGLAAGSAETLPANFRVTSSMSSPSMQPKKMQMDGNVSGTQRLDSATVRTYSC
Sequence of FLAG-ZNF24 (P17028 whole entry): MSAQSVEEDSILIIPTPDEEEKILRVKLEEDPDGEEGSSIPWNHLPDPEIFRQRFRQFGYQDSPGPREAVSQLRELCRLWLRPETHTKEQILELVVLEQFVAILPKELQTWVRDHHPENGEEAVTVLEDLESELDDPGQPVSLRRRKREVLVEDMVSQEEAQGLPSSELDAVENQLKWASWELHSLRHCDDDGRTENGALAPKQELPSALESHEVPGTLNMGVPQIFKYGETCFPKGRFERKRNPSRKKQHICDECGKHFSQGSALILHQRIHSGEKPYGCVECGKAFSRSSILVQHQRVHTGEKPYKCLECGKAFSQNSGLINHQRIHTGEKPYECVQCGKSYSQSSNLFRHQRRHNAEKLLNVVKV
Sequence of FLAG-NUMB (Q9QZS3 whole entry): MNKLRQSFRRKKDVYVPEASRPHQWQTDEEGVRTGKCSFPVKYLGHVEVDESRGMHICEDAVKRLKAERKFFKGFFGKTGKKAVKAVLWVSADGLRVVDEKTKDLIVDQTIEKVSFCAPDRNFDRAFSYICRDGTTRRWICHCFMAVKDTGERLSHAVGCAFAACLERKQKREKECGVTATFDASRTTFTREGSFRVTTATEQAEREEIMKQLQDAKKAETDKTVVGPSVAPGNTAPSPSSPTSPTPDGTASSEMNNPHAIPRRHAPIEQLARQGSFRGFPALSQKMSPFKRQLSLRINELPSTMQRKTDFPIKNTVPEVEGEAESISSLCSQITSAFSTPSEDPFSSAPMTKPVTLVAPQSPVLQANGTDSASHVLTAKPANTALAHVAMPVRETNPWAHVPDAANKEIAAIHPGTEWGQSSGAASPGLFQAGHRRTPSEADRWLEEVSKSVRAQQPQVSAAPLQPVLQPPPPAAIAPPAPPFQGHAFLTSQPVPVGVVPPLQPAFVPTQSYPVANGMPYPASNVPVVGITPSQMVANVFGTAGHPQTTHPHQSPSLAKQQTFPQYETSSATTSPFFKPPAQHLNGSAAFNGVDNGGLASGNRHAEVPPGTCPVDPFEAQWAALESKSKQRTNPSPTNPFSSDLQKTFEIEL

| Substance | percent of cells positively labelled with anti-FLAG antibody [%] | percent of FLAG positive cells [%] |
| --- | --- | --- |
| FLAG-Liprin-α1 (from UniProt Q13136 1-1202) (natural protein) | 30 | – |
| FLAG-NUMB (from UniProt Q9QZS3 1-653) (natural protein) | 10 | – |
| FLAG-ZNF24 (from UniProt P17028 1-368) (natural protein) | – | 77 |
